Experiment: yeast display, Sf9 membrane polyspecificity reagent, FACS + sequencing; frameworks hold sequencing errors
In short: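 Synthetic nanobody libraries on Saccharomyces cerevisiae BJ5465 were galactose-induced for 36–48 hours, stained 1 hour at 4 °C with 10% biotinylated, detergent-solubilized Sf9 membrane reagent and enriched on streptavidin microbeads. FACS then separated cells into low and high (top ~1%) gates by anti-HA (expression) and streptavidin (reagent binding) fluorescence. Genes were colony-PCR amplified, MiSeq 2 × 250 sequenced and CDR-length filtered. A clone's polyreactivity label is that of its gate of origin.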

## QVQLVESGVGLVQAGGSLSLSCAASGRIFPVYAMGWYRQAPGKERELVATISYSGSSTYYADSVKGRFTISRDNAKNNVYLLMNSLKPEDTAVYYCNADAFGPQCVQYYYWGQVTQVTVSS
  polyreactivity (PSR sort gate): low polyreactivity

## QVQLVESGGGLVQAGGSLRLSCAASGSTFHYYAMGWYRQAPGKERELVAAISKSGGITYYADSVKGRFTISRDNAKNTVSLQMNSLKPEDTAVYYCNAYSASGYDYWGQGTQVTVSS
  polyreactivity (PSR sort gate): high polyreactivity

## QVQLVESGGGLVQAGGSLRLSCAASGSNFSFYAMGWYRQAPGKERELVAAISYSGGSTYYADSVKGRFTISRDNAKNTVYLQINSLKPEDTAVYYCNSDIYRHHGWVPGGYRGQGTQVTVSS
  polyreactivity (PSR sort gate): low polyreactivity

## QVQLVESGGGLVQAGGSLRLSCAASGRTFYPNAMGWYRQAPGKERELVARITTRGGSTYYADSVKGRFTISRDNAKNTVYLQMNSLKPEATAVYYCAVDYNSDWAYDYWGQGTQVTVSS
  polyreactivity (PSR sort gate): high polyreactivity

## QVQHVESGGGLVQAGGSLRLSCAASGSIFYQNAMGWYRQAPGKERELVAAISSAGSTYYADSVKGRFTISRDNAKNTVYLQMNSLKPEDTAVYYCARRSSGELGYHIYDYWGQGTQVTVSS
  polyreactivity (PSR sort gate): low polyreactivity

## QVQRVESWGGLVQAGGSLRLSCAASGFTFSDNAMGWYRQAPGKERELVAAISRRGGSTYYADSVKGRFTISRDNAKNTVYLQMNSLKPEVTAVYYCAAVRASSKVHTRTYDYWGQGTQVTVSS
  polyreactivity (PSR sort gate): high polyreactivity

## QVQLQESGCGLVQEGGSLRPSCAASGSISEGVPMGWSRQAPGEERELVATTVMGATTNYADSVKGRFTISRGNANNTVYLQMISLKPDETAVYYCAAPLRYDKGFSFWGQGTQVTVSS
  polyreactivity (PSR sort gate): low polyreactivity

## QVQLVESGGGLVQAGGSLRLSCAASGRIFRYYAMGWYRQAPGKERELVATISSSGGSTYYADSVKGRFTISRDNAKNTVYLQMNSLKPEDTAVYYCAADWYGYRQFHGYYWGQGTQVTVSS
  polyreactivity (PSR sort gate): high polyreactivity

## QVQLVESGGGLVQAGGSLRLSCAASGFIFGNYAMGWYRQAAGNERELVAAISQRGGTTYYADSVKGRFTISRDNAKNTVYLQMNSLKPEDTAVYYCKAYYIGYYVDYEYWGQGTQVTVSS
  polyreactivity (PSR sort gate): high polyreactivity

## QFQLVESGGALVQAGGSLRLSCAASGLIFGRYAMGWYRQAPGNERELVAAISWRGGSTFYADSVKGRFTISRDNAKNTVYLQMNSLKPEDTAVYYCNARYYPARVRTYDHWGQGTQVTVSS
  polyreactivity (PSR sort gate): high polyreactivity

## QVQLVESGGGLVQAGGSLRLSCAASGSIFKTYAMGWYRQAPGKERELVAAISSGGSTYYADSVKGRFTISRDNAKNTVYLELNSLKPEDTAVYYCAADPWGAFVSFASYYYWGQGTQVTVSS
  polyreactivity (PSR sort gate): low polyreactivity

## QVQLVESGGGLVQAGGSLRLSCAASGRTFTHNTMGWYRQAPGKERELVAAISRSGASTYYADSVKGRFTISRDNAKNTVYLQMNRLKPEDTAVYYCNAYSRPHFGYVVGTKSRHGYWGQGTQVTVSS
  polyreactivity (PSR sort gate): high polyreactivity

## QVQLVESGGGLVQAGGSLRLSCAASGIIFPGYTMGWSRQAPGPEREVVAAISSGGRTNYADSVKGRFTISRDNAKNTVYLQMNSLKPEDTAVYYCAATRVASLGSPMYYCGQGTQVTVSS
  polyreactivity (PSR sort gate): high polyreactivity

## QVQLQESGGGPVLAGGSLRLSCAASGTIFVRLDMGWYRPAPGKEREFVATIGSGSSTYYADSVKGSFTISRDNVKNTVYLQMNSLQPEDTAVYYCAVSAAEQSRHYYWDQGTQVTVSS
  polyreactivity (PSR sort gate): low polyreactivity

## QVPLVESGGGVVQAGGSLRLSCAASGRTYRWNVMGWYRQAPGKERELVATISRRSGSTNYADSVKGRFTISRDNAKNTVYLQINSLKPEDTAVYYCNTDTYFPLYDYWGQGTQVTVSS
  polyreactivity (PSR sort gate): low polyreactivity

## QVQLVESGGGLVQAGGSLRLSCAASGSTFNYYAMGWYRQAPGKERELVAAIDWSGGSTYYADSVKGRFTISRDNAKNTVYLQMNSLKPEDTAVYYCAARTYDYSYRSYDYWGQGTQVTVSS
  polyreactivity (PSR sort gate): low polyreactivity

## QVQLVESGGGLVQAGGSLRLSCAASGSIFPGNAKGWYRQAPGKERELVASINWSGGSTYYADSVKGRVTISRDNAKNTVYVQMNSLKPEDTAGYYCNARAFRQGHVEYDYWGQGTQVTVSS
  polyreactivity (PSR sort gate): low polyreactivity

## QVQLVESGGGLVQAGGSLRLSCAASGFTFYTYVKGWYRQAPGKERELVAAITSGVSTNYADSVKGRFTISRDNAKNTVYLQMNSVKPEDTAVYYFNKTFLFLEYDSWGQGTQVTVSS
  polyreactivity (PSR sort gate): low polyreactivity

## QVQLVESGGGLDQAGGSLRLSCAASGRTFYYYAMGWYRQAPGIERELVAAISWSGGNTYYADSVKGRFTISRDNAKNTVYLQMNSLKPEDTAVYYCNRAYRTLTARTGRYDYWGQGTQVTVSS
  polyreactivity (PSR sort gate): high polyreactivity

## QVQLVESGGGLVKAGGSLRLSCAASGLISYPYSMGWYRQSPWKERELVAAITSRGTSTYYADSVKGRFTISRDNAKYTVYLHMNSLKPEDTAVYYCNAVVWRSRVDYYYWGQGTQVTVSS
  polyreactivity (PSR sort gate): high polyreactivity

## QVQLVESGGGLVQAGGSLRLSCAASGRTFAIYVMGWYRQAPGKEMELVAAISRGGSTYYADSVKGRFTISRDNAKNTVYLQMNSLKPEDTAVYYCAAGTGTTSRYYYWGQGTQVTVSS
  polyreactivity (PSR sort gate): high polyreactivity

## QVQLVESGGGLVQAGGSLRLSCAASGITFKGYTMGWYRQAPGKERELVATISRGGRTYADSVKGRFTISRDNAKNTVYLQMNSLKPEDTAVYYCAADKYWAQNDYWGQGTQVTVSS
  polyreactivity (PSR sort gate): low polyreactivity

## QVQLVESGGGLVQAGGSLRLSCAASGSTFGYNDMGWYRQAPGKERELVAAIDTGVSTNYADSVKGRFTISRDNAKNTVYLQMNSLKPEDTAVYYCAKSGSAYWHSGWSVGFDYWGQGTQVTVSS
  polyreactivity (PSR sort gate): low polyreactivity

## QDQLVESVGGLVQAGGSLRLSCAASGRTFGRYPMGSYIEAPGKEREMVAAIRSGGSTYYADSVKGRFTISRDNAKNTVYLLMNSLKPEDTAVYYCAADIDRHLTGFAYYRLDYWGQGTQVTVSS
  polyreactivity (PSR sort gate): low polyreactivity

## QVQLVESGGGLVQAGGSLRLSCAASGSIFWAYTMGWYRQAPGKERELVAAISASGGSTYYADSVKGRFTISRDNAKNTFYLQMNSLKPEDTAVYYCNKDYHRPYGGGSKGDYWGQGTQVTVSS
  polyreactivity (PSR sort gate): low polyreactivity

## QVQLVESGGGLVQAGGSLRLSCAASGSIFSNYAMGWYRQAPGKERELVAAITLSSGGTYYADSVKGRFTISRDNAKNTVYLQMNSLKPEDTAVYYCAAQYKYFKHRYYYWGQGTQVTVSS
  polyreactivity (PSR sort gate): high polyreactivity

## QVQLVESAGGLVQAGGSLRLSCAASGSIFYRNVMAWYRQAPGQERELVAAITWSGGSTYYADSVKGRFTISRDNAKNTVYLQMNSLKPEDTAVYFCAAASKATYRGKVSGYYYWGQGTQVTVSS
  polyreactivity (PSR sort gate): high polyreactivity

## QVQLVESGGGLVQAGGRLRLSCAASGRTFRPYALGWYRQPPVKERELVAAIDSSGTSTYYADSVKGRFTISRDNAKNTVYLQMNSLKPEDTAVYDCAQASPDHWYSRYDYWGQGTQVTVSS
  polyreactivity (PSR sort gate): low polyreactivity

## QVQLLESGGGLVQAGGSLRLSCAASGRIFDPYAMGWYRQAPGKERELVAAITGSGDGTYYADTVKGRYTISRYNAKNTVYLQMNRLKPEDTAVYYCAAVGRDRFVIHDYWGQGTQVTVSS
  polyreactivity (PSR sort gate): low polyreactivity

## QVQLVESGGGLVQAGGSLRLSCAASGSIFNRYAMGWFRQAPGKERELVAAISRRGAGTYYADSVKGRFTISRDNAKNTVYLQMNSLKPEDTAVYYCAATLSYTGSKRYDYWGQGTQVTVSS
  polyreactivity (PSR sort gate): high polyreactivity

## QVQHVESAGGLVQAGGILRLSCAASGSTFVGNAMGWYRQAPGKEREWVATISNSGGRTDYADSVKGRFTISRDNAKNTVYLQMNSLKPEDTAVYYCAADHPAFGPGYSFDYWGQGTQVTVSS
  polyreactivity (PSR sort gate): low polyreactivity

## QVQLVESGGGLVQAGGSLRLSCAASGITQYGYAMGWYRQAPGKEREFVAAISRSGDRTYYADSVKGRYTISRDNAKNTVYLQLNSLKPEDTAVYYCNAWRYDYWGQGTQVTVSS
  polyreactivity (PSR sort gate): high polyreactivity

## QVQLVESGGGLVQAGGSLRLSCAASGRTFDPNAMGWYRPAPGKERELVAAISSSAGSTYYADSVKGRFTISRDNAKNTVYLQMNSLNPEDPALYFCAAGSGTFVTRYRYGYWGQGTQVTVSS
  polyreactivity (PSR sort gate): high polyreactivity

## QVQLVESGGGLVQAGGSLRLSCAASGSTFYRYAMGWYRQAPGKEREFVAAISGSGGSTRYADSVKGRFTISRDNAKNTVYLQMNSLKPEDTAVYYCAARSRDGYITFDYWGQGTQVTVSS
  polyreactivity (PSR sort gate): high polyreactivity

## QVQLVESGGGLVQAGGSLRLSCAASGNIFTTYAMGWYRQAPGKERELVAAISRTGGRTSYADSVKGRFTISRDNAKNTVYLQMNSLKPEDTAVYYCAAVPTVRPSAPRARILSDYWGQGTQVTVSS
  polyreactivity (PSR sort gate): high polyreactivity

## QVQLVESGGGLVQAGGSLRLSFAASGIIFDINAMGWYRQAPGKERELVAAITTSVDSTYYADSVKGRFTISRDNAKNTVYLQMNSLKPEDTAVYYCAAGPGDSGDDYWGQGTQVTVSS
  polyreactivity (PSR sort gate): low polyreactivity

## QVQLVESGGGLVQAGGSLRLSCAASGRIFTVFGMGWYRQAPGKERELVAAISWSGGGTYYADSVKGRFTISRDNAKNTVYLQMNSLKPEDTAVYYCNAVRQYTWSLVFFSSDYDYWGQGTQVTVSS
  polyreactivity (PSR sort gate): low polyreactivity

## QVQLVESGGGLVQAGGSLRLSCAASGLTFDRYAKGWYRQAPGKERELVAAITSGGSTYYADSVKGRFTISRDNAKNTVYLQMNSLKPEDTAVYYCAALVFRGRSFTHDYWGQGTQVTVSS
  polyreactivity (PSR sort gate): high polyreactivity

## QVQLVESGGGLVQAGGSLRLSCAASGSTLAIYAMGWYRQAPGKERELVAAISGGGSTYADSVKGRFTISRDNAKNTVYLQMNSLKPEETAVYYCNADGWGDRFWSNFRFDYWGQGTQVTVSS
  polyreactivity (PSR sort gate): low polyreactivity

## QVQLVESGGGLVQAGGSLRLSCAASGITLYGNAMGWYRQAPGKERELVAAITGRGGSTYYADSVKGRFTISRDNAKNTVYLQMNSLKPEDTAVYYCNKAQSRSQLYGYWGQGTQVTVSS
  polyreactivity (PSR sort gate): high polyreactivity

## QVQLVESGGGLVQAGGSLRLSCAASGYTFWANAMGRYRQAPGKERELVAAISWTGGSTYYADSVKGRFTISRDNAKNTVYLQMNSLKPEDTAVYYCNRARINTRVQTDDYWGQGTQVTVSS
  polyreactivity (PSR sort gate): high polyreactivity

## QVQLVESRGGLVQAGGSLRLSCAASGRIIPSYMGWYRQAPGKQRELVARISNTGSTYYADSVKGRFTISRDNAKNTVYLQMNRLKPEDTAVYYCAAVYIFRVFSHPPYDYWGQGTQVTVST
  polyreactivity (PSR sort gate): low polyreactivity

## QVQLVESGGGLVQAGGSLRLSCAASGYIYRYNAMGWYRQAPGKEREFVASISQRGGSTYYADSVKGRFTISRDNAKNTVYLQMNSLKPEDTAVYYCAARLGYYSYEYNYWGQGTQVTVSS
  polyreactivity (PSR sort gate): high polyreactivity
